Tests used:
[1] = target: human HLA-G expressed on cells (JEG3 cells, natural; SKOV3 cells transfected with recombinant HLA-G) (human) (UniProt P17693); test: flow cytometry on SKOV3 HLA-G cells (SKOV3 transfected with HLA-G); isotype control; detection with goat anti-human IgG (H+L) Alexa 488
[2] = target: human HLA-G expressed on cells (JEG3 cells, natural; SKOV3 cells transfected with recombinant HLA-G) (human) (UniProt P17693); test: flow cytometry on JEG3 cells (natural HLA-G); isotype control; detection with goat anti-human IgG (H+L) Alexa 488

Isotype (antibody)
MFI [1]: 78 | MFI [2]: 57
